Experimental data: the supplement of paper PMC10567573
± gives the standard deviation.

Assay: protein stability index of a GFP-peptide fusion (GPS, HEK-293T) (PSI 1-6); higher = more stable
[1] = treatment: DMSO, c terminus: a fixed tail appended
[2] = treatment: MLN4924 1 uM, 8 h, c terminus: a fixed tail appended
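Also: 24-mer peptide tiles fused after GFP, lentivirally expressed, FACS-sorted into six equal bins by GFP/DsRed ratio, decoded by Illumina sequencing, PSI is the read-weighted mean bin number.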

Sequence | protein stability index [1] | protein stability index [2] | protein stability index (treatment: DMSO, c terminus: native) | protein stability index (treatment: MLN4924 1 uM, 8 h, c terminus: native)
LINTSDTVQHGAVYSLEPRLCGGK [SDE2] | 3.97 ± 0.43 | 3.97 ± 0.33 | – | –
CLSTWLLHFIATNYLIFSQKPEFQ [RHOBTB3] | 3.09 ± 0.19 | 3.22 ± 0.2 | – | –
KLATCYFFTVEFGLCKQDGQLRVF [TPH1] | 2.59 ± 0.47 | 2.97 ± 0.56 | – | –
LIQNGGEIDCVDKDGNTPLHVAAR [ANKRD44] | 4.32 ± 0.087 | 4.53 ± 0.16 | – | –
PEQGVPKSGEGFIDFIGQVHKTKE [PTPRD] | 4.6 ± 0.44 | 5.17 ± 0.5 | – | –
HIGHVGWDPNTGFDLNNLDPELKN [WASL] | 4.42 ± 0.24 | 4.47 ± 0.32 | – | –
EAMFCDFPKINHGILYDEEKYKPF [CFHR2] | 2.49 ± 0.34 | 2.81 ± 0.26 | – | –
TSVDHDRAPVVGVRVNVLLSRYLI [DLC1] | – | 3.12 ± 1.8 | – | –
GIAQVKIQGQNKEMLAAACQMFLG [FLOT1] | 2.34 ± 0.12 | 2.69 ± 0.1 | – | –
GCLENMPEADCIPKEQLSTSFQWV [PLK2] | 3.57 ± 0.2 | 3.45 ± 0.36 | – | –
KEMTQKLEALHLEALCEEDLLLWI [DENND6A] | 2.23 ± 0.28 | 2.26 ± 0.32 | – | –
QMQDDEQKTRLLEDSVSRLEKEIE [PALM] | 5.11 ± 0.15 | 4.97 ± 0.1 | – | –
NTEEQLEIALAPYQHLEEDMKSLK [MTUS2] | 4.78 ± 0.17 | 4.8 ± 0.28 | – | –
PGGAPRVASRNLFPKDTLMNLHVY [CLPTM1] | 2.33 ± 0.24 | 2.29 ± 0.058 | – | –
QLIYNHITTRVNSEQEHFLIVPFG [ADD1] | 2.41 ± 0.27 | 2.26 ± 0.08 | – | –
GDIQELYDTTLALGHAAAFSDDCD [GLT8D2] | 5.24 ± 0.12 | 5.23 ± 0.14 | – | –
ESHATLTLAQAHFNNGEYAEAEAL [TTC32] | 5.19 ± 0.2 | 5.04 ± 0.15 | – | –
QQLKEFDGKSLVSVTKEGLELPED [HSP90AB1] | 5.29 ± 0.42 | 5.3 ± 0.44 | – | –
MECQPESSISHRFHKDCASRVNNA [EHMT1] | 4.28 ± 0.38 | 4.15 ± 0.39 | – | –
GAGAVSRTCTAPLDRLKVLMQVHA [SLC25A25] | 2.32 ± 0.48 | 2.41 ± 0.14 | – | –
EGKAPIISGVTKAISSPTVSRLTD [TPPP] | 4.52 ± 0.2 | 4.51 ± 0.36 | – | –

Sequence | protein stability index [1] | protein stability index [2] | protein stability index (treatment: DMSO, c terminus: native) | protein stability index (treatment: MLN4924 1 uM, 8 h, c terminus: native)
IGLRQHHCRKCGKAVCGKCSSKRS [WDFY2] | 4.08 ± 0.17 | 4.15 ± 0.26 | – | –
PTARHFQEHPRQQLATSSFLLFLL [MOSPD3] | 2.2 ± 0.24 | 2.23 ± 0.4 | – | –
IKNDKYGPWLEWEIMLQYCFPRLD [PRIM1] | – | 3 ± 1 | – | –
IPHTHLLATLDPLALDREPPPHLL [WDR88] | 3.23 ± 0.12 | 3.26 ± 0.14 | – | –
QPPSCQGEAAGSSLIGHLQTLSPD [DUSP5] | 4.76 ± 0.14 | 4.69 ± 0.13 | – | –
IHLSAPCIYSEVMEALDLQPGLSF [PCMTD2] | 2.23 ± 0.23 | 1.96 ± 0.41 | – | –
PVEYRSDVNSFVTECEPSELFQLQ [CDS1] | 4.5 ± 0.36 | 4.55 ± 0.18 | – | –
SSGKLICSRTTGYQILTLEKDQEQ [GMCL1] | 3.94 ± 0.46 | 4.37 ± 0.28 | – | –
DFYEAMDDYTSAIEVQPNFEVPYY [TTC32] | 2.64 ± 0.23 | 2.84 ± 0.3 | – | –
GDLIEITDAKKREALYAQDPSTGC [KMT5A] | 5 ± 0.24 | 4.86 ± 0.33 | – | –
LGKMLIGLAGYLSGYDGTFLFQKP [POMT2] | 2.65 ± 0.86 | 2.45 ± 0.79 | – | –
SPFSVHPKTGRISVPIDLQKVDQF [PRIM1] | 3.18 ± 0.59 | 3.42 ± 0.37 | – | –
KIFVENLRRQKSLRLEWETQQELR [IQUB] | 2.69 ± 0.43 | 2.93 ± 0.46 | – | –
ARGAGPPEPLRICPLHISVKEELD [TRIM35] | 4.59 ± 0.19 | 4.86 ± 0.4 | – | –
TGMWWRHLVAGGGAGAVSRTCTAP [SLC25A25] | 2.32 ± 0.25 | 2.48 ± 0.42 | – | –
VAEQVGIDKGDIPDLTQAPSSLME [SNAP91] | 4.97 ± 0.38 | 5.03 ± 0.23 | – | –
VGRLYAVYDQAVSIFYDLPQGSGF [SMAD6] | 2.54 ± 0.47 | 2.39 ± 0.65 | – | –
LLKRMESLKLKSSHHSKHKAPSKL [DLC1] | 3.03 ± 0.36 | 3.1 ± 0.51 | – | –
AAAYSPSEALLYALVHDHQAYAHY [ANKRD9] | 2.05 ± 0.14 | 2.27 ± 0.28 | – | –
CSRPSGSSSSSGVLMVGPNFRVGK [CSNK1G1] | 3.63 ± 0.47 | 3.74 ± 0.62 | – | –
FVRLFVDENLDRMVPISKQPKEKI [NOL4L] | 2.41 ± 0.098 | 2.65 ± 0.12 | – | –

Sequence | protein stability index [1] | protein stability index [2] | protein stability index (treatment: DMSO, c terminus: native) | protein stability index (treatment: MLN4924 1 uM, 8 h, c terminus: native)
TTRHGEVGSALHRESFTSRQKTSG [C10orf62] | 4.75 ± 0.38 | 4.78 ± 0.083 | – | –
MQNGAGASRTSTIFLNGNRERPLN [TNXB] | 3.7 ± 0.49 | 4.06 ± 0.2 | – | –
LNHGASVNNTTLTNSTPLRAACFD [FEM1C] | 3.98 ± 0.31 | 3.94 ± 0.14 | – | –
PFSSVTEEELNFEKGETMEVIEKP [NCK2] | 5.38 ± 0.22 | 5.42 ± 0.28 | – | –
KILAEAAKLVPMGFTTATEFHQRR [RAD51] | 2.56 ± 0.23 | 2.7 ± 0.52 | – | –
SESNSATVEEPPTDPIPEDEKKE [SMARCE1] | – | – | 5.58 ± 0.47 | 5.41 ± 0.1
VSVFIGVLIDLWKITKVMDVRLDR [CLPTM1] | 3.19 ± 0.1 | 2.97 ± 0.35 | – | –
LRLLVESDINSIRRILDELTLCKS [KRT34] | 2.22 ± 0.5 | 2.16 ± 0.12 | – | –
QQLHQLPRGRLDLATQSLTVETCR [LRRC45] | 4.04 ± 0.23 | 3.9 ± 0.32 | – | –
SVGSYLDTLADDVPGHQTPSDLDQ [LURAP1L] | 5.28 ± 0.23 | 5.34 ± 0.24 | – | –
FIEERRQGLEQFINKIAGHPLAQN [SNX12] | 2.73 ± 0.17 | 2.94 ± 0.47 | – | –
AFYDVTGGMSHLHTFRATFQEPLY [TRIM14] | 2.31 ± 0.25 | 2.41 ± 0.5 | – | –
LIYGSMEMFPAAQQLYRHGKAYRF [JAGN1] | 2.28 ± 0.36 | 2.21 ± 0.093 | – | –
RRRGSDPASGEVEASQLRRLNIKK [TMEM40] | 5.26 ± 0.23 | 5.02 ± 0.24 | – | –
EYTCDVEKRSRGQVLFDKVCEHLN [EPB41L3] | 2.16 ± 0.32 | 2.05 ± 0.61 | – | –
LYIQSHYQLELQCCIDWTHVTDPL [SMG5] | 3.31 ± 0.46 | 3.06 ± 0.42 | – | –
VQEAVLDKWVNDPHRMDRRLLALI [GOLPH3] | 2.29 ± 0.18 | 2.52 ± 0.17 | – | –
GISGTTTKKGDLQWNAGEKKLTGG [SNAP91] | 4.43 ± 0.077 | 4.86 ± 0.41 | – | –
TPATPATLSASSSAGGSRTPAMSS [TFE3] | 4.99 ± 0.23 | 4.95 ± 0.3 | – | –
AGIVRVFSGTPPPPVLSFRLVHTT [FCHO1] | 1.99 ± 0.07 | 2.13 ± 0.57 | – | –
